What was measured:
[1] = test system: HeLa Kyoto; assay: solubility in G1/S (NP-40 vs SDS abundance) (log2 ratio); higher = more soluble; conditions: cell cycle stage: G1/S
[2] = test system: HeLa Kyoto; assay: thermal stability score vs G1/S (z-score of summed log2 fold changes over temperatures); higher = more thermally stable than in G1/S
[3] = test system: HeLa Kyoto; assay: melting temperature (median over replicates), in situ; higher = more thermally stable
[4] = test system: HeLa Kyoto; assay: solubility change mitosis vs G1/S (difference of NP-40 vs SDS log2 ratios) (log2 ratio difference); higher = more soluble in mitosis
[5] = cell cycle stage: early G1 (4.5 h after nocodazole release)
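For melting temperature (median over replicates), in situ in this document: HeLa Kyoto cells synchronized by double thymidine or nocodazole block, proteins quantified by TMT10plex mass spectrometry, three independent biological replicates.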
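For solubility change mitosis vs G1/S (difference of NP-40 vs SDS log2 ratios) in this document: synchronized HeLa Kyoto cells (double thymidine block for G1/S, nocodazole release for mitosis), protein amounts in NP-40 versus SDS lysates quantified by mass spectrometry, three biological replicates.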
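For solubility in G1/S (NP-40 vs SDS abundance) in this document: HeLa Kyoto cells arrested at G1/S by double thymidine block, proteins quantified by TMT10plex mass spectrometry in mild NP-40 versus SDS extracts, three biological replicates.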
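For thermal stability score vs G1/S (z-score of summed log2 fold changes over temperatures) in this document: synchronized HeLa Kyoto cells, proteins quantified by TMT10plex mass spectrometry, three biological replicates, mitosis taken 0.5 h after nocodazole release, G1/S directly after double thymidine block.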

Sequence	solubility in G1/S (log2) [1]	thermal stability score [2, 5]	thermal stability score ([2]; cell cycle stage: mitosis)	melting temperature ([3]; cell cycle stage: G1/S)	melting temperature ([3]; cell cycle stage: mitosis)	solubility change mitosis (log2) [4]
MALSDEPAAGGPEEEAEDETLAFGAALEAFGESAETRALLGRLREVHGGGAEREVALERFRVIMDKYQEQPHLLDPHLEWMMNLLLDIVQDQTSPASLVHLAFKFLYIITKVRGYKTFLRLFPHEVADVEPVLDLVTIQNPKDHEAWETRYMLLLWLSVTCLIPFDFSRLDGNLLTQPGQARMSIMDRILQIAESYLIVSDKARDAAAVLVSRFITRPDVKQSKMAEFLDWSLCNLARSSFQTMQGVITMDGTLQALAQIFKHGKREDCLPYAATVLRCLDGCRLPESNQTLLRKLGVKLVQRLGLTFLKPKVAAWRYQRGCRSLAANLQLLTQGQSEQKPLILTEDDDEDDDVPEGVERVIEQLLVGLKDKDTVVRWSAAKGIGRMAGRLPRALADDVVGSVLDCFSFQETDKAWHGGCLALAELGRRGLLLPSRLVDVVAVILKALTYDEKRGACSVGTNVRDAACYVCWAFARAYEPQELKPFVTAISSALVIAAVFDRDINCRRAASAAFQENVGRQGTFPHGIDILTTADYFAVGNRSNCFLVISVFIAGFPEYTQPMIDHLVTMKISHWDGVIRELAARALHNLAQQAPEFSATQVFPRLLSMTLSPDLHMRHGSILACAEVAYALYKLAAQENRPVTDHLDEQAVQGLKQIHQQLYDRQLYRGLGGQLMRQAVCVLIEKLSLSKMPFRGDTVIDGWQWLINDTLRHLHLISSHSRQQMKDAAVSALAALCSEYYMKEPGEADPAIQEELITQYLAELRNPEEMTRCGFSLALGALPGFLLKGRLQQVLTGLRAVTHTSPEDVSFAESRRDGLKAIARICQTVGVKAGAPDEAVCGENVSQIYCALLGCMDDYTTDSRGDVGTWVRKAAMTSLMDLTLLLARSQPELIEAHTCERIMCCVAQQASEKIDRFRAHAASVFLTLLHFDSPPIPHVPHRGELEKLFPRSDVASVNWSAPSQAFPRITQLLGLPTYRYHVLLGLVVSLGGLTESTIRHSTQSLFEYMKGIQSDPQALGSFSGTLLQIFEDNLLNERVSVPLLKTLDHVLTHGCFDIFTTEEDHPFAVKLLALCKKEIKNSKDIQKLLSGIAVFCEMVQFPGDVRRQALLQLCLLLCHRFPLIRKTTASQVYETLLTYSDVVGADVLDEVVTVLSDTAWDAELAVVREQRNRLCDLLGVPRPQLVPQPGAC [TBCD]	-0.194	-0.177	0.431	50 °C	50.2 °C	-0.154
MALSKSMHARNRYKDKPPDFAYLASKYPDFKQHVQINLNGRVSLNFKDPEAVRALTCTLLREDFGLSIDIPLERLIPTVPLRLNYIHWVEDLIGHQDSDKSTLRRGIDIGTGASCIYPLLGATLNGWYFLATEVDDMCFNYAKKNVEQNNLSDLIKVVKVPQKTLLMDALKEESEIIYDFCMCNPPFFANQLEAKGVNSRNPRRPPPSSVNTGGITEIMAEGGELEFVKRIIHDSLQLKKRLRWYSCMLGKKCSLAPLKEELRIQGVPKVTYTEFCQGRTMRWALAWSFYDDVTVPSPPSKRRKLEKPRKPITFVVLASVMKELSLKASPLRSETAEGIVVVTTWIEKILTDLKVQHKRVPCGKEEVSLFLTAIENSWIHLRRKKRERVRQLREVPRAPEDVIQALEEKKPTPKESGNSQELARGPQERTPCGPALREGEAAAVEGPCPSQESLSQEENPEPTEDERSEEKGGVEVLESCQGSSNGAQDQEASEQFGSPVAERGKRLPGVAGQYLFKCLINVKKEVDDALVEMHWVEGQNRDLMNQLCTYIRNQIFRLVAVN [METTL16]	0.161	1.61	2.17	50.2 °C	50.8 °C	-0.2
MALSRGLPRELAEAVAGGRVLVVGAGGIGCELLKNLVLTGFSHIDLIDLDTIDVSNLNRQFLFQKKHVGRSKAQVAKESVLQFYPKANIVAYHDSIMNPDYNVEFFRQFILVMNALDNRAARNHVNRMCLAADVPLIESGTAGYLGQVTTIKKGVTECYECHPKPTQRTFPGCTIRNTPSEPIHCIVWAKYLFNQLFGEEDADQEVSPDRADPEAAWEPTEAEARARASNEDGDIKRISTKEWAKSTGYDPVKLFTKLFKDDIRYLLTMDKLWRKRKPPVPLDWAEVQSQGEETNASDQQNEPQLGLKDQQVLDVKSYARLFSKSIETLRVHLAEKGDGAELIWDKDDPSAMDFVTSAANLRMHIFSMNMKSRFDIKSMAGNIIPAIATTNAVIAGLIVLEGLKILSGKIDQCRTIFLNKQPNPRKKLLVPCALDPPNPNCYVCASKPEVTVRLNVHKVTVLTLQDKIVKEKFAMVAPDVQIEDGKGTILISSEEGETEANNHKKLSEFGIRNGSRLQADDFLQDYTLLINILHSEDLGKDVEFEVVGDAPEKVGPKQAEDAAKSITNGSDDGAQPSTSTAQEQDDVLIVDSDEEDSSNNADVSEEERSRKRKLDEKENLSAKRSRIEQKEELDDVIALD [UBA2]	0.146	-0.2	0.883	52.2 °C	52 °C	-0.204
MALTRPVRLFSLVTRLLLAPRRGLTVRSPDEPLPVVRIPVALQRQLEQRQSRRRNLPRPVLVRPGPLLVSARRPELNQPARLTLGRWERAPLASQGWKSRRARRDHFSIERAQQEAPAVRKLSSKGSFADLGLEPRVLHALQEAAPEVVQPTTVQSSTIPSLLRGRHVVCAAETGSGKTLSYLLPLLQRLLGQPSLDSLPIPAPRGLVLVPSRELAQQVRAVAQPLGRSLGLLVRDLEGGHGMRRIRLQLSRQPSADVLVATPGALWKALKSRLISLEQLSFLVLDEADTLLDESFLELVDYILEKSHIAEGPADLEDPFNPKAQLVLVGATFPEGVGQLLNKVASPDAVTTITSSKLHCIMPHVKQTFLRLKGADKVAELVHILKHRDRAERTGPSGTVLVFCNSSSTVNWLGYILDDHKIQHLRLQGQMPALMRVGIFQSFQKSSRDILLCTDIASRGLDSTGVELVVNYDFPPTLQDYIHRAGRVGRVGSEVPGTVISFVTHPWDVSLVQKIELAARRRRSLPGLASSVKEPLPQAT [DDX28]	-0.336	-0.0521	1.54	50 °C	50.9 °C	0.0712
MAMAYLAWRLARRSCPSSLQVTSFPVVQLHMNRTAMRASQKDFENSMNQVKLLKKDPGNEVKLKLYALYKQATEGPCNMPKPGVFDLINKAKWDAWNALGSLPKEAARQNYVDLVSSLSPSLESSSQVEPGTDRKSTGFETLVVTSEDGITKIMFNRPKKKNAINTEMYHEIMRALKAASKDDSIITVLTGNGDYYSSGNDLTNFTDIPPGGVEEKAKNNAVLLREFVGCFIDFPKPLIAVVNGPAVGISVTLLGLFDAVYASDRATFHTPFSHLGQSPEGCSSYTFPKIMSPAKATEMLIFGKKLTAGEACAQGLVTEVFPDSTFQKEVWTRLKAFAKLPPNALRISKEVIRKREREKLHAVNAEECNVLQGRWLSDECTNAVVNFLSRKSKL [ECI2]	0.369	-0.204	0.871	53.6 °C	53.2 °C	-0.0636
MAMDQVNALCEQLVKAVTVMMDPNSTQRYRLEALKFCEEFKEKCPICVPCGLRLAEKTQVAIVRHFGLQILEHVVKFRWNGMSRLEKVYLKNSVMELIANGTLNILEEENHIKDALSRIVVEMIKREWPQHWPDMLIELDTLSKQGETQTELVMFILLRLAEDVVTFQTLPPQRRRDIQQTLTQNMERIFSFLLNTLQENVNKYQQVKTDTSQESKAQANCRVGVAALNTLAGYIDWVSMSHITAENCKLLEILCLLLNEQELQLGAAECLLIAVSRKGKLEDRKPLMVLFGDVAMHYILSAAQTADGGGLVEKHYVFLKRLCQVLCALGNQLCALLGADSDVETPSNFGKYLESFLAFTTHPSQFLRSSTQMTWGALFRHEILSRDPLLLAIIPKYLRASMTNLVKMGFPSKTDSPSCEYSRFDFDSDEDFNAFFNSSRAQQGEVMRLACRLDPKTSFQMAGEWLKYQLSTFLDAGSVNSCSAVGTGEGSLCSVFSPSFVQWEAMTLFLESVITQMFRTLNREEIPVNDGIELLQMVLNFDTKDPLILSCVLTNVSALFPFVTYRPEFLPQVFSKLFSSVTFETVEESKAPRTRAVRNVRRHACSSIIKMCRDYPQLVLPNFDMLYNHVKQLLSNELLLTQMEKCALMEALVLISNQFKNYERQKVFLEELMAPVASIWLSQDMHRVLSDVDAFIAYVGTDQKSCDPGLEDPCGLNRARMSFCVYSILGVVKRTCWPTDLEEAKAGGFVVGYTSSGNPIFRNPCTEQILKLLDNLLALIRTHNTLYAPEMLAKMAEPFTKALDMLDAEKSAILGLPQPLLELNDSPVFKTVLERMQRFFSTLYENCFHILGKAGPSMQQDFYTVEDLATQLLSSAFVNLNNIPDYRLRPMLRVFVKPLVLFCPPEHYEALVSPILGPLFTYLHMRLSQKWQVINQRSLLCGEDEAADENPESQEMLEEQLVRMLTREVMDLITVCCVSKKGADHSSAPPADGDDEEMMATEVTPSAMAELTDLGKCLMKHEDVCTALLITAFNSLAWKDTLSCQRTTSQLCWPLLKQVLSGTLLADAVTWLFTSVLKGLQMHGQHDGCMASLVHLAFQIYEALRPRYLEIRAVMEQIPEIQKDSLDQFDCKLLNPSLQKVADKRRKDQFKRLIAGCIGKPLGEQFRKEVHIKNLPSLFKKTKPMLETEVLDNDGGGLATIFEP [XPO5]	-0.158	0.753	2.34	49 °C	48.9 °C	-0.175

From the supplement of paper PMC5998384
